Assays:
[1] = molecular target: VPS29 (as expressed for the complexes, pMR101A‐VPS29) (UniProt Q9UBQ0); assay: crystal structure
VPS29–VPS35C subcomplex = VPS29–VPS35C subcomplex (UniProt Q96QK1;Q9UBQ0); assay: crystal structure

Q: Which results are given for SNIFDDPLNAFGGQ [peptide FAM21‐R21 (1328-SNIFDDPLNAFGGQ-1341)]?
A: binding result [1]: binds; binding result (VPS29–VPS35C subcomplex): binds
